Results as given in the DeepSol protein solubility set.

Assay: soluble on expression in E. coli; label from the status in PepcDB or PDB records

| Sequence | soluble on expression in E. coli |
| --- | --- |
| MSKTAIIFPGQGAQKVGMAQDLFNNNDQATEILTSAANTLDFDILETMFTDEEGKLGETENTQPALLTHSSALLAALKNLNPDFTMGHSLGEYSSLVAADVLSFEDAVKIVRKRGQLMAQAFPTGVGSMAAVLGLDFDKVDEICKSLSSDDKIIEPANINCPGQIVVSGHKALIDELVEKGKSLGAKRVMPLAVSGPFHSSLMKVIEEDFSSYINQFEWRDAKFPVVQNVNAQGETDKEVIKSNMVKQLYSPVQFINSTEWLIDQGVDHFIEIGPGKVLSGLIKKINRDVKLTSIQTLEDVKGWNEND | not soluble |
| MICLEKVEDIPRLQELFAQILIVHHQARSDVLKVKGSKFTDKELEGVIGDANKPVFVYEDEAGTILCHLFLIIKEVSENDGPQKPIKTLFIDDLCVEEKARGQKLGEKLYQFALDYATEQECYNATLHVWNDNQGTLDFYEHLGVKPRYTEMKTVLKLEHHHHHH | not soluble |
| MPNPRRIVFGDVHGHFDALTALFEAIAPNERDGVYFVGDLIDRGPESAKVVDFVMENKYHCLLGNHEQMMLDAVGGFNFSPQLLHAWIYSGGKSTLESYEHQIPQSHVDWMRNLPLYLDLGDVWLVHAGVDPRLPIEEQGEAQFCWIRDEFHRYPYPYFANKLIITGHTITFTFANVEPGKLVSGPGWLDIDTGAYHPKSGWLTALELNNQEVYQAHIFTNEVRRLPLEDAVVPLEHHHHHH | soluble |
| MGSDKIHHHHHHMHNHPAKRINSIKLCLDVKVALTPQTESRDMAASSKDAAFWSKISRKYAADPIRNMDGYLQTLDRTKSYLKPEDHVLEIGCGTGSTALLLAPHVAHITGTDLAPGMIEIAAEKRAKEGLENVTFKVAETLDHNPQDGAYDAILAHNLLHLLHDLDQSLQRIAALTKTGGVFISKTVCAPKAGGIKYALIRALAIPLMQRIGKAPYVNFISVPDLERRIERAGFEICEVISQPGLMQSHYVVARKL | not soluble |
| MIWNETIECMDRESLRKIQSIRLKKIVDYVYHNTPFYRKKMQEMGITPDDINTIDDIVKLPFTTKHDLRDNYPFGLCAVPMSQIVRIHASSGTTGKPTVVGYTRKDLSSWAECISRAFTAYGAGRSDIFQVSYGYGLFTGGLGAHAGAENIGASVIPMSSGNTEKQITLMHDFGSTVLCCTPSYALYLADAIKDSGYPREEFQLKVGALGAEPWTENMRHEIEEKLGIKAYDIYGLSEIAGPGVGYECECQHGTHLNEDHYFPEIIDPNTLQPVEPGQTGELVFTHLTKEGMPLLRYRTRDLTALHYDKCSCGRTLVRMDRILGRSDDMLIIRGVNVFPTQIESVILEMEEFEPHYLLIVGRENNTDTMELQVEVRPDFYSDEINRMLALKKKLASRLQSVLGLGVNVKLVEPRSIERSVGKAKRVIDNRKI | not soluble |
| MADVLERVTKIIVDRLGVEETEVVPAASFKEDLGADSLDVVELVMQLEDEFEMEISDEDAEKIATVGDAVTYIESHL | not soluble |
| SRWQRDLTDSTVLRNMGVALGHTLLAYDSCLKGLGKLQADPARLSEDLQNAWEVLAEPIQTVMRRYGVANPYEQLKALTRGKTGIDRTTLQQFIEQLDIPAAERDRLLQLTPWGYI | not soluble |
| AGMSEAPRAETFVFLDLEATGLPSVEPEIAELSLFAVHRSSLENPEHDESGALVLPRVLDKLTLCMCPERPFTAKASEITGLSSEGLARCRKAGFDGAVVRTLQAFLSRQAGPICLVAHNGFDYDFPLLCAELRRLGARLPRDTVCLDTLPALRGLDRAHSHGTRARGRQGYSLGSLFHRYFRAEPSAAHSAEGDVHTLLLIFLHRAAELLAWADEQARGWAHIEPMYLPPDDPSLEA | soluble |
| MMRNFGREFLEETSIFENKTCLIWRDREISFKEFHEYIGKWKNVLDEQKTKTTNPLRIALFCTNSPDILAIIVAGQLSGVTVIPLNPSYKKYEIDEYISKSIANFIIVSDDVDLDKFEEREVNLISELFTSNVTPSSTASTPENQGVIVFFSSGTTGPPKQFEYTQRILCSQIDQIKAIRSDPRFFSPSTDDICYGVLPFFHAGGLITILSMIFSGCTVLINERWNEHEFLANCQNYKVSVLFLVPPVLNFFANHPLVSSYDLSALKTIYVGAAASPPENFAKVAERLPELENLIQLYGTSECGVLLCSTGKGKASGKTVGWPFPFVELKINPENNEIFVKSATAMEEGFMETGDLGCLSFKTIELMIVGRSKEMMKIRGWQVNPNEVEDVIRKVEGVLDCAVYQNQEKLTAKIIGNPDSKADIFKIVKDNLASYKQLDDVIFVEELPRNPSGKLVRHMLH | not soluble |
| GPGSMIQIIAPRGPLQEMLLLELQGKVVIPPKLLEEERERQRIPNSSEEEVKACSQVTGGKRLREDGECGVNVDTNQVVEVPLGCVVWDSRNETRCSLQIGTVEVSGSYGKRREPLLVLKRCVVGDKTADAEGAVACEYSESSGSQCCLLQEWLQEHPEELTLDATVRGATVPRKVYELVGVVERYIHLNSKPLRRFV | not soluble |
| MHKLLYTCNLRCRMCPFWRRKDEKLLSLEEEVLMLKSLEKAGVLFMGFEGGEPLLRRDLEDILEESYKRFYTSLVTNGWLLKDRAKSISNYLDYLFVSIDGIGEVHDKIRGISGAFERAVEGIKEARKYLPVAISFTITKENMDQVKDVIELA | soluble |
| MTKDQNGTWEMESNENFEGYMKALDIDFATRKIAVRLTQTKIIVQDGDNFKTKTNSTFRNYDLDFTVGVEFDEHTKGLDGRNVKTLVTWEGNTLVCVQKGEKENRGWKQWVEGDKLYLELTCGDQVCRQVFKKK | soluble |
| MGRGIAQIIRHDEPTDEIVDKFYRQINNPVLANINLQWEGDGDSPIIYPCNPPDLFAEQPLVLFGKKPDARGGKLHITGIVAGGTHYQHTFDLNFEETGNPAIAQLWGRYRIKELMNLMVSGETKLGVEAVTDTALTYQMLSQYTAFVAVSDDVRVDSLQETVSVQVPVEMAEGISYLGIFGSAVSAAAPIMANMVLEHHHHHH | not soluble |
| MSLKAIFWDMDGTMVDSEPQWGIATYELSEAMGRRLTPELRELTVGSSLPRTMRLCAEHAGITLSDADYERYRAGMFARVHELFDESLVPNPGVTELLTELKALEIPMLVTTNTERDLATRSVAAVGNEFFIGSIAGDEVPTAKPAPDMYLEAARRVGFDPSECLVFEDSYNGMLGAVTAGCRVIGLHPEEVQAPEGVVPLRSLHGKNSFEGVTAEMVTAWYHQIEPAGVAKEGHHHHHH | soluble |
| MSLAKHIVELTDALSNKIAAGEVVERPASVVKELVENAIDAGSTVIDILVEEAGLNKITIIDNGSGIEEEDVATAFLRHATSKIKNEADLFRVHTLGFRGEALPSIASVSHLEMETSTGEAKGTTISLEGGKIIEQKSGHARKGTQIEVSQLFFNTPARLKYLKSLPTELGNITDILNRLALAHPDISFRFSHNGKPLLQTNGNGELRQVIAAIYGVSIAKKSVPVKAESLDFKISGYAVLPEVNRSNRNYISTIINGRFIKNFALVKAIQEGYHTLLPIGRFPIIVLQIEMDPIIVDVNVHPAKLEVRLSKEKELGQLISQMIKETFHKLQLIPDGEISKEGHHHHHH | soluble |
| MGSDKIHHHHHHMQYTELVPGTLIRRYKRFLADVALASGDVVVAHCPNTGSMRAVDVPGCRVWLSPSRNPARKLAWTWELIELPMPDAPPALVSVHTGRANALVAQALQEARIPELAGYDTHKREVRVADARLDFRLSTAHAAAYVEVKQVTLREHDGHGYFPDSVSERGRRHLEALAARVAEGDRAVLLFCVAHTGIDAVAPAAHLDPAYAETLRRVAAQGVEVLAYGMSATWTHDGVPGDIALTRALPVSLERRLASATPLSD | not soluble |
| GPGSRGIDGRQVVRREIKWANMAADWNKTNTKMHAKLKERCRKGIPSRFRGVAWQLLMGSFHQLNSEENNGVYVALRDKKLADKETDVIISRDLARTFPTHVLFQDPGGVGQTFLRNILHAYAGCDPEVGYVQGMGFLVAALSTQMAEGGVLLGPA | not soluble |
| MFFSALKSFLSRYITVWRNVWAVRDQLKPPKRTAEEQAFLPAHLELTDTPVSAAPKWAARFIMAFALLALLWSWFGKIDIVAAASGKTVSGGRSKTIQPLETAVVKAVHVRDGQHVKQGETLAELEAVGTDSDVVQSEQALQAAQLSKLRYEAVLAALESRTVPHIDMAQARSLGLSDADVQSAQVLAQHQYQAWAAQDAQLQSALRGHQAELQSAKAQEQKLVSVGAIEQQKTADYRRLRADNFISEHAFLEQQSKSVSNWNDLESTRGQMRQIQAAIAQAEQNRVLNTQNLKRDTLDALRQANEQIDQYRGQTDKAKQRQQLMTIQSPADGTVQELATYTVGGVVQAAQKMMVIAPDDDKMDVEVLVLNKDIGFVEQGQDAVVKIESFPYTRYGYLTGKVKSVSHDAVSHEQLGLVYTAVVSLDKHTLNIDGKAVNLTAGMNVTAEIKTGKRRVLDYLLSPLQTKLDESFRER | not soluble |
| MIIKRTPQAASPLASWLSYLENLHSKTIDLGLERVSLVAARLGVLKPAPFVFTVAGTNGKGTTCRTLESILMAAGYKVGVYSSPHLVRYTERVRVQGQELPESAHTASFAEIESARGDISLTYFEYGTLSALWLFKQAQLDVVILEVGLGGRLDATNIVDADVAVVTSIALDHTDWLGPDRESIGREKAGIFRSEKPAIVGEPEMPSTIADVAQEKGALLQRRGVEWNYSVTDHDWAFSDAHGTLENLPLPLVPQPNAATALAALRASGLEVSENAIRDGIASAILPGRFQIVSESPRVIFDVAHNPHAAEYLTGRMKALPKNGRVLAVIGMLHDKDIAGTLAWLKSVVDDWYCAPLEGPRGATAEQLLEHLGNGKSFDSVAQAWDAAMADAKAEDTVLVCGSFHTVAHVMEVIDARRSGGK | soluble |
| MSLNQIYQLTKPKFINVKYQEEAIDQENHILIRPNYMAVCHADQRYYQGKRDPKILNKKLPMAMIHESCGTVISDPTGTYEVGQKVVMIPNQSPMQSDEEFYENYMTGTHFLSSGFDGFMREFVSLPKDRVVAYDAIEDTVAAITEFVSVGMHAMNRLLTLAHSKRERIAVIGDGSLAFVVANIINYTLPEAEIVVIGRHWEKLELFSFAKECYITDNIPEDLAFDHAFECCGGDGTGPAINDLIRYIRPQGTILMMGVSEYKVNLNTRDALEKGLILVGSSRSGRIDFENAIQMMEVKKFANRLKNILYLEEPVREIKDIHRVFATDLNTAFKTVFKWEEGHHHHHH | soluble |
| SNYLDQMEEYDKVEEISRKHKHNCFCIQEVVSGLRQPVGALHSGDGSQRLFILEKEGYVKILTPEGEIFKEPYLDIHKLVQSGIKGGDERGLLSLAFHPNYKKNGKLYVSYTTNQERWAIGPHDHILRVVEYTVSRKNPHQVDLRTARVFLEVAELHRKHLGGQLLFGPDGFLYIILGDGMITLDDMEEMDGLSDFTGSVLRLDVDTDMCNVPYSIPRSNPHFNSTNQPPEVFAHGLHDPGRCAVDRHPTDININLTILCSDSNGKNRSSARILQIIKGKDYESEPSLLEFKPFSNGPLVGGFVYRGCQSERLYGSYVFGDRNGNFLTLQQSPVTKQWQEKPLCLGTSGSCRGYFSGHILGFGEDELGEVYILSSSKSMTQTHNGKLYKIVDPKRPLMPEECRATVQPAQTLTSECSRLCRNGYCTPTGKCCCSPGWEGDFCRTAKCEPACRHGGVCVRPNKCLCKKGYLGPQCEHHHHHH | soluble |
| DVLESTIKAQKSRALNRKNLNYKQLLNTFGSLIGLVFLKSYEQGERTYLGMLSRGYSKDSNIKTLGQK | not soluble |
| MHIRRDQYMNEYVWETCEELDKKIADRVRLIRKRRSISQEKLSKISNVSLGSIKRFETTGQISLLSLTKIAVALNIADDLRNIFTEIPYNSIEEVINERR | not soluble |
| SMGGFMEDLRKCKIIFIIGGPGSGKGTQCEKLVEKYGFTHLSTGELLREELASESERSKLIRDIMERGDLVPSGIVLELLKEAMVASLGDTRGFLIDGYPREVKQGEEFGRRIGDPQLVICMDCSADTMTNRLLQMSRSSLPVDDTTKTIAKRLEAYYRASIPVIAYYETKTQLHKINAEGTPEDVFLQLCTAIDSIFL | soluble |
